Test in all cases: EMSA
On the technique in general: In EMSA bound probe runs differently from free probe, usually more slowly.

One data set concerns the target T1, BcnI H77N+H219N (UniProt Q8RNV8 1-238, H77N;H219N).
T1 sequence: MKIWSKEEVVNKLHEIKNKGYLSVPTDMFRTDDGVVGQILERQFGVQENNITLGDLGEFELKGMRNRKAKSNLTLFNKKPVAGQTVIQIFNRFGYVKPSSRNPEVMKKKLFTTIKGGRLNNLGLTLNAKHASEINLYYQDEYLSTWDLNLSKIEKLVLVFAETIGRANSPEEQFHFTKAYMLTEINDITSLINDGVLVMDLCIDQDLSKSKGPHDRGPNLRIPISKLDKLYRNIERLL

The target of a further data set is T2, BcnI H219N (UniProt Q8RNV8 1-238, H219N).
T2 sequence: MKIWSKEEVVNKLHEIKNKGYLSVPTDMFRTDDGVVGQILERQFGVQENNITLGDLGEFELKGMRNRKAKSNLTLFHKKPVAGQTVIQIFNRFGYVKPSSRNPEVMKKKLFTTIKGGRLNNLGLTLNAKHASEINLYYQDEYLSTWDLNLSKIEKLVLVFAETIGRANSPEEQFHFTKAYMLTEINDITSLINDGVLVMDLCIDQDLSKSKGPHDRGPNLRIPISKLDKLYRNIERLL

Another data set addresses T3, BcnI H219Q (UniProt Q8RNV8 1-238, H219Q).
T3 sequence: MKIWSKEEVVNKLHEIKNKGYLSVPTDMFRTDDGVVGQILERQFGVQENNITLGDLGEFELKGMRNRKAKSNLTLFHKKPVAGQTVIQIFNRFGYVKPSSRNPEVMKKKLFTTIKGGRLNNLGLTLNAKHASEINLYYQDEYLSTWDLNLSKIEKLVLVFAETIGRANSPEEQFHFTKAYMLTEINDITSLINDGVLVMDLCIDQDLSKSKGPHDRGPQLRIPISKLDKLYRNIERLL

The next data set deals with T4, BcnI wt (UniProt Q8RNV8 1-238).
T4 sequence: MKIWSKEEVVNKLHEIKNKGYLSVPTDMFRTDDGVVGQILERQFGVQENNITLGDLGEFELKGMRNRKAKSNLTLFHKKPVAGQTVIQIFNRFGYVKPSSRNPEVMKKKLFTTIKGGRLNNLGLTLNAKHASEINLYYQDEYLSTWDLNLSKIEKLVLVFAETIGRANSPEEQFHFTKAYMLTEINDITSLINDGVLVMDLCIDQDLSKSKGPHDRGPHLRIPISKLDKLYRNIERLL

A further data set addresses T5, BcnI H77A (UniProt Q8RNV8 1-238, H77A).
T5 sequence: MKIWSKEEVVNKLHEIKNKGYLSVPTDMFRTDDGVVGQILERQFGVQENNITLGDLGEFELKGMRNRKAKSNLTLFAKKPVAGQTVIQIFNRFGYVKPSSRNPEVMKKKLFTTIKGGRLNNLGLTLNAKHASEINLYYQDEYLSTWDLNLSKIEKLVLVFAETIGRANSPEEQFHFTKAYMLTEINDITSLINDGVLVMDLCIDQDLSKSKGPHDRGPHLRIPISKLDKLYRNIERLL

In the next data set the target is T6, BcnI H77A+H219N (UniProt Q8RNV8 1-238, H77A;H219N).
T6 sequence: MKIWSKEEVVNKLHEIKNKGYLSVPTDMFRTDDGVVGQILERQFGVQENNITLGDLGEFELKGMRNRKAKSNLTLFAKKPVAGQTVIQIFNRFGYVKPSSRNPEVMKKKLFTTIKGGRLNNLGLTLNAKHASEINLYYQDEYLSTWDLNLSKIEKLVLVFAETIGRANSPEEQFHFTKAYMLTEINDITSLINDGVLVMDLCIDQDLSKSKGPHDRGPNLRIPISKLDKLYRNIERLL

Another data set deals with T7, BcnI H77N (UniProt Q8RNV8 1-238, H77N).
T7 sequence: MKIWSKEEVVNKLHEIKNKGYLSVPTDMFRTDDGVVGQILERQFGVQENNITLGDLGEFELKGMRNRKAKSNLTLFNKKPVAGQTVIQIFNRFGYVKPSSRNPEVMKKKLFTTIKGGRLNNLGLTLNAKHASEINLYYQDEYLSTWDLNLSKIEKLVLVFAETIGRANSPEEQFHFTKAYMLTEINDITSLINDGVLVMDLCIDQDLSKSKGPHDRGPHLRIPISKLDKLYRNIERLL

B1: CG oligoduplex (cognate) (dsDNA)
DNA 1: CGCACGACTTCCCGGAAGAGCACGC
DNA 2: GTTGCGTGCTCTTCCGGGAAGTCGTGCG
As to B1, the Kd (commonly the constant that tells how readily two partners part at equilibrium) with BcnI H77N+H219N was found to be 20000 pM; in the data set with BcnI H219N it was 400 pM; with BcnI H219Q, 600 pM; with BcnI wt, 500 pM; with BcnI H77A it was 250 pM; with BcnI H77A+H219N it was 500 pM. The Kd with BcnI H77N came out at 300 pM.

B2: TA oligoduplex (miscognate) (dsDNA)
DNA 1: CGCACGACTTCCTGGAAGAGCACGC
DNA 2: GTTGCGTGCTCTTCCAGGAAGTCGTGCG
For B2, in the data set with BcnI H77A, the Kd was 25000 pM. In other words, the double-digit nanomolar range.

For the origin of these results see publication PMC3089477.
